The text below walks through data of US20220211798A1, “THERAPY GUIDANCE AND/OR THERAPY MONITORING FOR A TREATMENT WITH ANGIOTENSIN-RECEPTOR-AGONIST AND/OR A PRECURSOR THEREOF” (4TEEN4 PHARMACEUTICALS GMBH, priority 2018, published 2022).

“Also recorded” adds a separate entry of the source.

The subject of assay [1] is Patients with vasodilatory shock. As to conditions: vasodilatory shock (80% in septic shock); cited from earlier work.
Assay [2] deals with healthy Black 6 mice injected with DPP3. Nature of the assay: Effect of Valsartan in healthy mice injected with DPP3. The class given is in vivo. The method, then: The effect of an antagonist for the type I angiotensin II receptor (ATR1), Valsartan, in healthy mice injected with DPP3 was studied by monitoring the shortening fraction. In this experiment, healthy Black 6 mice (8-12 weeks, group size refer to table 8) consumed water with 50 mg/kg Valsartan per day or just water (Table 8) for a period of two weeks. Subsequently, both groups received an intravenous injection of native DPP3 (600 μg/kg) and the shortening fraction was assessed according to Gao et al., 2011 at 15, 60 and 120 minutes (FIG. 12).

Assay [3] relates to normotensive mice. The note with it: cited from earlier work.
Assay [4] has as its system AngII-infused hypertensive mice. As to conditions: cited from earlier work.
Assay [5] concerns Wild type Black 6 mice. The experiment in a line: Effect of native DPP3 injection in healthy mice. The assay is classed as in vivo. As to conditions: 600 μg/kg intravenously, compared to PBS control. The method, then:
The effect of native hDPP3 injection in healthy mice was studied by monitoring the shortening fraction and renal resistive index.
Wild type Black 6 mice (8-12 weeks, group size refer to table 3) were acclimated during 2 weeks and a baseline echocardiography was done. The mice were randomly allocated to one of the two groups and, subsequently, native DPP3 protein or PBS were injected intravenously via a retro-orbital injection with a dose of 600 μg/kg for DPP3 protein.
After DPP3 or PBS injection, cardiac function was assessed by echocardiography (Gao et al. 2011) and renal function assessed by renal resistive index (Lubas et al., 2014, Dewitte et al, 2012) at 15, 60 and 120 minutes (FIG. 3).

“Asp-Arg-Val-Tyr-Ile-His-Pro-Phe (DRVYIHPF; listed as Homo sapiens) [angiotensin II]”: in assay [1], the hypotension entry is “significant correction of hypotension” and the “survival to 28 days” value was “more likely to survive to 28 days”.
Consider `CCCCC(=O)N(Cc1ccc(-c2ccccc2-c2nnn[nH]2)cc1)[C@H](C(=O)O)C(C)C` [Valsartan], for which the “shortening fraction after DPP3 injection” value in assay [2] (50 mg/kg Valsartan per day in water for two weeks, then native DPP3 600 μg/kg intravenous) was “rescued; also recorded: no signs of heart dysfunction”.

B1: native DPP3: native human Dipeptidyl peptidase 3 purified from human erythrocyte lysate (protein)
chain: ADTQYILPNDIGVSSLDCREAFRLLSPTERLYAYHLSRAAWYGGLAVLLQTSPEAPYIYALLSRLFRAQDPDQLRQHALAEGLTEEEYQAFLVYAAGVYSNMGNYKSFGDTKFVPNLPKEKLERVILGSEAAQQHPEEVRGLWQTCGELMFSLEPRLRHLGLGKEGITTYFSGNCTMEDAKLAQDFLDSQNLSAYNTRLFKEVDGEGKPYYEVRLASVLGSEPSLDSEVTSKLKSYEFRGSPFQVTRGDYAPILQKVVEQLEKAKAYAANSHQGQMLAQYIESFTQGSIEAHKRGSRFWIQDKGPIVESYIGFIESYRDPFGSRGEFEGFVAVVNKAMSAKFERLVASAEQLLKELPWPPTFEKDKFLTPDFTSLDVLTFAGSGIPAGINIPNYDDLRQTEGFKNVSLGNVLAVAYATQREKLTFLEEDDKDLYILWKGPSFDVQVGLHELLGHGSGKLFVQDEKGAFNFDQETVINPETGEQIQSWYRSGETWDSKFSTIASSYEECRAESVGLYLCLHPQVLEIFGFEGADAEDVIYVNWLNMVRAGLLALEFYTPEAFNWRQAHMQARFVILRVLLEAGEGLVTITPTTGSDGRPDARVRLDRSKIRSVGKPALERFLRRLQVLKSTGDVAGGRALYEGYATVTDAPPECFLTLRDTVLLRKESRKLIVQPNTRLEGSDVQLLEYEASAAGLIRSFSERFPEDGPELEEILTQLATADARFWKGPSEAPSGQA
As for B1, the figures for the blood pressure entry in assay [3] and in assay [4] were “no alteration in blood pressure” and “reduced blood pressure”, respectively. For the same molecule, the heart rate result in assay [4] is on record as “without changing heart rate”. In addition, the “renal resistive index (renal function)” value is “renal resistive index increase” in assay [5] and “increased renal resistive index” in assay [5] (listed as DPP3). The shortening fraction result is reported as “significantly reduced shortening fraction” in assay [5]; “shortening fraction reduction” in assay [5] (listed as DPP3); “significant decrease in the shortening fraction” in assay [2] (native DPP3 600 μg/kg intravenous, mice on water without Valsartan).
